Experimental data as given in the nanobody polyreactivity screen of Harvey et al. (2022).

Assay: yeast display, Sf9 membrane polyspecificity reagent, FACS + sequencing; frameworks hold sequencing errors
Outline: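 In a synthetic yeast display library (Saccharomyces cerevisiae BJ5465), nanobody expression was induced with galactose for 36–48 hours. FACS gates were set low and high (top ~1%) using anti-HA fluorescence for expression and streptavidin fluorescence for binding of the Sf9 membrane reagent. Each polyreactivity label is drawn from the gate of origin.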

Row | Sequence | polyreactivity (PSR sort gate)
1 | QVQLVESGGGLVQAGGSLRLSCAASGLILYTYAMGCYRQAPGKERELVAAINSGGRTYYADSVKGRFTISRDNAKNTVYLQMNSLKPEDTAVYYCAADYGSRVRGFNYWGQGTQVTVSS | low polyreactivity
2 | QVQLVESGGGLVQAGGSLRLSCAASGFIFGPNAMGWYRQAPGKERELVAAIRWSSGTTYYADSVKGRFTISRDNAKNTVSLQMNSLKPEDTAVYYCAAGPYVSYYWGQGTQVTVSS | low polyreactivity
3 | QVQLQESVGGLVQAGGILRLSCAACGNIFPSAVMGWYRQALGKEREFVATINSGSNTYYADSVKGRFTISRDNATNTVYLQMNSLKLEDTAVYYCAAYFKLPAWHTYWGQGTQVTVSS | low polyreactivity
4 | QVQLVESGGGLVQAGGSLRLSCAASGRIFGKYALGWYRQAPGKERELVAAISGRGGRTYYADSVKGRFTISRDNAKNTVYLQMNSLKPEDTAVYYFANDPRGSRYDYWGQGTQVTVSS | high polyreactivity
5 | QVQLVESGGGLVQAGGSLRLSCAASGSIFGKYAMGWYRQAPGKERELVAAISKRGGSTYYADSVKGRFTISRDNAKNTVYLQMNSLKPEDTAVYYCAATPVYSGPYDYWGQGTQVTVSS | high polyreactivity
6 | QVQLVESGGGLVQAGGSLRLSCAASGFIFAEYAMGWYRQAPGKERELVVAIDVGGGSTYYADSVKGRFTISGDNAKNTVYLQMNSLKPEDTAVYYCAATQYGYWVPYQGFDYWGQGTQVTVSS | low polyreactivity
7 | QVQLVESGGGLVQAGGSLRLSCAASGRTFEYNDMGWYRQSPGKERELVAAISWRGTSTYYADSVKGRFTISRDNAKNTVYLQMNSLKPEDTAVYYCAADYSYSFYYAYYWGQGTQVTVSS | high polyreactivity
8 | QVQLVESGGGLDQAGGSLRLSSAASGSMILHNDMGWYRQAPGKEMELVATIDSAGGTYYADSVKGRFTISRDNAKNTVYLQMNSLKPEDSAVYYCAAYGPYVLSIYDYWGQGTQVTVSS | low polyreactivity
9 | QVQLVESGGGLVQAGGSLRLRCAASGRTFYYAMGWYRQAPGKERYADSVKGRFTISRDNAKNTVYLQMNSLKPEDTAVYYCAAKVPDPPSLDESDYWGQVTQVTVSS | low polyreactivity
10 | QVQLVESGGGLVQAGGSLRLSCAASGIIFRAYAMGWYRPAPGKETEFVADISYSGGRTYYADSVKGRFTISRDNAKNTVYLPLNSLKPEDTAVYYCGARKLYGSPEHGYWGQGTQVTVSS | high polyreactivity
11 | QVQLVESGGGLVQAGGSLRLSCAASGRTFRHNDMGWYRQAPGKERELVAAISYSGGSTHYADSVKGRFTISRDNAKNTVYLQMNSLKPEDTAVYYCNRYSYDSHFLYPFRGHDYWGQGTQVTVSS | low polyreactivity
12 | QVQLVESGGGLVQAGGSLRLSCAASGFIFYKNTMGWYRQAPGKERELVAAITDGDHTNYADSVKGRFTISRDYAKNTVYLQMNSLKPEDTAVYYCAADYAWNYAFGYWGQGTQVTVSS | low polyreactivity
13 | QVQLVESGGGLVQAGGSLRLSCAATGLTFPQYAMGWYRQAPGKEREIVAAIRSSDDRTYYADSVKGRFTISRDNAKNTVYLQLNSLKPEDTAVYYCAARVGKIGYKPRMDYWGQGTQVSVSS | high polyreactivity
14 | QVQLVESRGGLVQAGGSLRLSCAASGRTIGLNAMGWYRQAPRKERELVASAITGGGDSTYYADSVKGRFTMSRDNAKNPVYLQMNSVKPEDTAVYYCAKRYSRGSQYDYWGQGTQVTVSS | high polyreactivity
15 | QVQLVESGGGLVQAGGSLRLICAASGRTFYVYAMGWYRQAPGKEREFVARITSNGGSTTYADSVKGRFTISRDNAKNTVYLQMNSLKPDDTAVYYCNADYDPEDMDYWGQGTQVTVSS | low polyreactivity
16 | QVQLQESGGGLVQAGGSLRLSCASSGTISQEDWKGWYRQAPGKEREFVAAIGLGSNTNYADSLKGRFTISRDNAKNTVYLQMNSLKPEDTAVYYCAVSVWQYSDHVYRGQGTQVTVSS | low polyreactivity
17 | QVQLVESGGGLVQAGGSLRLSCGASGRIIGYNAMGWYRQAPGKERELVAVISTSGTITYYADSVKGRFTISRDNAKNTVYLQMNRLKPEDTAVYYCAARYYQRANGFGYCGQGTQVTVSS | low polyreactivity
18 | QVQLVESGGGLVQAGGSLRLSCAASGFTFYYNAMGCYRQAPGKERELVAIRFRGGNTYYADSVKGRFTISRDNAKNTVYLQMNSLKPEDTAVYYCNADDRGSTYVDFDYWGQGTQVTVSS | low polyreactivity
19 | QVQLVESGGGLVQAGGSLRLSCAASGSIIGSYVMGWYRQAPGKERELVATITNGGSTYYADSVKGRFTISRDNAKNTVYLQMNSLKPEDTAVYYCAADGRGDLYVWPGIGGDYWGQGTQVTVSS | low polyreactivity
20 | QVQLVESGGGLVQAGGSLRLSCAASGRTYVYNAMGWYRQAPGKERELVAAISSSGGSTRYADSVKGRFTISRDNAKNTVYLQMNSVKPEDTAVYYCNRLRYSNRYDSWGQGTQVTVSS | high polyreactivity
21 | QVQLVESGGGLVQAGGSLRLSCAASGRTFDYYAMGWYRPAPGKERELVARISWNGGSTRYADSVKGRFTISRDNAKNTVYLQMNSLKPEDTAVYYCKKVPYYAGQHYDYWGRGTQVTVSS | high polyreactivity
22 | QVQLVESGGGLVQAGGSLRLSCAASGSTFYEYAMGWYRQAPGKERELVAAIDERGGNTYYADSVKGRFTISRDNAKNTVYLQMNSLKPEVTAVYYCAADAYPFYQSYYPFEYWGQGTQVTVSS | low polyreactivity

Row | Sequence | polyreactivity (PSR sort gate)
23 | QVQLVESGGGLVQAGGSLRLSCAASGSTYGWNAMGWSRQAPGKERELVAAISSSGGITYYADSVKGRFTISRDNAKNTVYLQMNSLKPEDTAVYYCAAERDVDWVNYWGQGTQVTVSS | low polyreactivity
24 | QVQLVESGGGLVQAGGSLRLSCAASGNIFSDNAMGWYIQAPGKERELVAAITSGGSTNYADSVKGRFTISLDNAKNTVYLQMISLKPEDNAVYYCAADISYRHFLFDYWGQGTQVTVSS | low polyreactivity
25 | QVQLVESGGGLVQAGGSLRLSCAASGITFSRKVMGWFRQAPGKERELVAAISRSGGRTYYADSVKGRFTISRDTAKNTVYLQMNSLKPEDTAVYYCNRDIGGTSVLDDYWGQGTQVTVSS | low polyreactivity
26 | QVQLVESGGGLVQAGGSLRLSCAASGLTFPHNAMGWYRQAPGKERELVAAITSSGCSTYYADSVKGRFTISRDNAMNSVYLQMNSLKPEDTAVYYCAKRDGTDRLDDYWGQGTQVTVSS | high polyreactivity
27 | QDQLVDSGGGLLQAGGSLSLSCAASGHIIQVKTMGWYRQAPGKERELVASISASVGSTYYADSVKGRFTISRDNAKNTVYLQMNSLKPEDTAVYYCAKSLGYSVVRTLSPTGFYYWGQGTQVTVSS | low polyreactivity
28 | QVQLVESGGGLVQAGGSLRLSCAASGFTFYKYTMGWYRQAPGKERELVAAIRSSGGRTYYADSVKGRFTISRDNAKNTVYLQMNSLKPEDTAVYYCNAVVDRLIFWQFDYWGQGTQVTVSS | high polyreactivity
29 | QVQLVESGGGLVQAGGSLRLSCAASGGTFPWYTKGWYRQAPGKERELVATIRGRDGSTFYADSVKGRFTISRDNAKNTVYLQMNSLKPEDTAVYYCAAVGRRKDLRWGVYYRFDYWGQGTQVTVSS | low polyreactivity
30 | QVQLVESGGGLVQAGGSLRLSCAASGRILVKNTMGWYRQAPGKERELVAAITSAGNTYYADSVKGRFTITRDNAKNSVYFQMNSLTPEATAVYYCAARNRTFFQPTYYYWGQGTQVTVSS | high polyreactivity
31 | QVQLVESGGGLVQAGGSLRLSCAASGSILRYYAMGWYRQAPGKEREFVAAISWSGTSTYYADSVKGRFTISRDNAKNTVYLQMNSLKPEDTAVYYCAARTYYVPYYYWGQGTQVTVSS | high polyreactivity
32 | QVQLVESGVGLVQAGGSLRLSCAASGSTFWLYAMGWYRQAPGKERELVASISSRGGSTYYADSVKGRFTISRDNAKNTVYLQMNSLKPEDTAVYYCAAKDIRYDDDYWGQGTQVTVSS | low polyreactivity
33 | QVQLVESGLGLVQAGGSLRLSCAASGSIFQRYAMGWYRQAPGKEREFVAAISGRGGSTYYADSVKGRFTISRDNAKNTVYLQMNSLKPEDTAVYYCAADSSRFYGRPRFYYWGQGTQVTVSS | high polyreactivity
34 | QVQLVESGGGLVQAGGSLRLSCAASGFIFGYYAMGWYRQAPGKERELVAAITRSGGSTRYADSVKGRFTLSRDNAKNTVYLQMNSLKPEDTAVYYCTAYAPRQLYGYDYWGQGTQVTVSS | high polyreactivity
35 | QVQLVESGGGLVQAGGSLRLSCAASGRIFGPYAMGWYRQAPGKERELGASISGGGSTNYADSVKGRFTISRDNAKNTVYLPMNSVKPEDTAVYYCAADVYYQYWGWWPYDYWGQGTQVTVSS | low polyreactivity
36 | QVQLVESGGGLVQAGGSLRLSCAASGRTLWYYTMGWYRQAPGKERELVADITRGTSTNYADSVKGRFTISRDNAKNTVYLQMNSLKPEDTAVYYCNRAHGRSRYSRDYDSWGQGTQVTVSS | low polyreactivity
37 | QVQLVESGGGLVQAGGSLRLSCAASGRTFAIYVMGWYRQAPGKERELVAAITRVGSTYADSVKGRFTISRDNAKNTVYVQMNSLKPEDTAVYYCAAVSGVRSGPWRYDYWGQGTQVTVSS | high polyreactivity
38 | QDQLVESGGGLVQAGGSLRLSCAASGSIFRPNAMGWYRQAHGKERELVAAITYSTGSTYYADSVKGRFTISRDNAKNTVYLQMNSLKPEDTAVYYCAARFWRWLFPFDYLGQGTQVTVSS | high polyreactivity
39 | QVQLVESGGGLVQAGGSLRLSCAASGRTFRYYDMGWYRQATGKERELVARISISGAGTYYADSVKGRFTISRDNAKNTVYLQINSLKPEDTAVYYCAADLFWWQKTNSGGDYWGQGTQVTVSS | low polyreactivity
40 | QVQLVESGGGLVQAGGSLRLSCAASGYTFPRYAMGWYRQAPGKERELVAAISRRGGSTYYADSVKGRFTISRDNAKNTVYLQMNSLKPEDTAVYYCAAATRQGYYSGSTRYDYWGQGTQVTVSS | high polyreactivity
41 | QVQLVESGGGLFQAGGSLRLSCAASGSTFLIYAMGWYRQAPGKERELVATIRSGGASTNYADSVKGRFTISRDNAKNTVYLQMNSLKPEDTAVYYCPARCWTWTYQSSYVYWGQGTQVTVSS | low polyreactivity
42 | QVQLKESCGGLVQAGGSLRLSCAASGTITYAPHKGWYRQAPGKERELVAGITIGGTTYYADSVKGRFTISRDNAKNTVYLQMNSLSPGDTAVYYCAAHSEQYTPFYYWGQGTQVTVSS | low polyreactivity
43 | QVQLVESGGGLVQAGGSLRLSCAASGSIFPDNAMGWYRQAPGKERELVATIRSTGGTNYADSVKGRFTISRDNEKNTVYLQMNSLKPEDTAVYYCATDLWSTTGSEYDYWGQGTQVTVSS | low polyreactivity
